Experimental data as given in patent US9908923.

biological target: CXCR4 (full-length receptor) (UniProt P61073); experiment: cell-based or functional assay
Sequence (P61073 whole entry): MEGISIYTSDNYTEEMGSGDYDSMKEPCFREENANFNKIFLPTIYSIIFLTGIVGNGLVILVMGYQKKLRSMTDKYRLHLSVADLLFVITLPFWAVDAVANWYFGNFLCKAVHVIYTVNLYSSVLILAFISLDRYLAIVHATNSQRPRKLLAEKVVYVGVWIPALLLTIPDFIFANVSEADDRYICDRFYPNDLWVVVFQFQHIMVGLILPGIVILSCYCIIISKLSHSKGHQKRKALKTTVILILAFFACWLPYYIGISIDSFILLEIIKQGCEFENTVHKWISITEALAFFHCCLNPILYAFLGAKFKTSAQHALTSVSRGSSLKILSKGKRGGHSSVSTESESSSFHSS

Row | calcium flux EC50 against unmutated CXCL12 | Substance
1 | 6 fold | CXCL12 Asn33 to alanine mutant (from UniProt P48061 22-89) (ligand)
2 | 6 fold | CXCL12 Asn33 to arginine mutant (from UniProt P48061 22-89) (ligand)
3 | 6 fold | CXCL12 Asn33 to glutamine mutant (from UniProt P48061 22-89) (ligand)
